Test results as given in patent publication US20030181404.

B1: CHK (murine Ctk) immunoprecipitated from mouse brain (protein)
chain: MARRSSRVSWLAFEGWESRDLPRVSPRLFGAWHPAPAAARMPTRWAPGTQCMTKCENSRPKPGELAFRKGDMVTILEACEDKSWYRAKHHGSGQEGLLAAAALRHGEALSTDPKLSLMPWFHGKISGQEAIQQLQPPEDGLFLVRESARHPGDYVLCVSFGRDVIHYRVLHRDGHLTIDEAVCFCNLMDMVEHYTKDKGAICTKLVKPRRKQGAKSAEEELAKAGWLLDLQHLTLGAQIGEGEFGAVLQGEYLGQKVAVKNIKCDVTAQAFLDETAVMTKLQHRNLVRLLGVILHHGLYIVMEHVSKGNLVNFLRTRGRALVSTSQLLQFALHVAEGMEYLESKKLVHRDLAARNILVSEDLVAKVSDFGLAKAERKGLDSSRLPVKWTAPEALKNGRFSSKSDVWSFGVLLWEVFSYGRAPYPKMSLKEVSEAVEKGYRMEPPDGCPGSVHTLMGSCWEAEPARRPPFRKIVEKLGRELRSVGVSAPAGGQEAEGSAPTRSQDP
B2: Csk (murine) immunoprecipitated from mouse brain (protein)
chain: SAIQAAWPSGTECIAKYNFHGTAEQDLPFCKGDVLTIVAVTKDPNWYKAKNKVGREGIIPANYVQKREGVKAGTKLSLMPWFHGKITREQAERLLYPPETGLFLVRESTNYPGDYTLCVSCEGKVEHYRIMYHASKLSIDEEVYFENLMQLVEHYTTDADGLCTRLIKPKVMEGTVAAQDEFYRSGWALNMKELKLLQTIGKGEFGDVMLGDYRGNKVAVKCIKNDATAQAFLAEASVMTQLRHSNLVQLLGVIVEEKGGLYIVTEYMAKGSLVDYLRSRGRSVLGGDCLLKFSLDVCEAMEYLEGNNFVHRDLAARNVLVSEDNVAKVSDFGLTKEASSTQDTGKLPVKWTAPEALREKKFSTKSDVWSFGILLWEIYSFGRVPYPRIPLKDVVPRVEKGYKMDAPDGCPPAVYEVMKNCWHLDAATRPTFLQLREQLEHIKTHELHL

Protein	in vitro kinase assay of immunoprecipitates (32P incorporation into substrate) (C-terminal src peptide)	in vitro kinase assay of immunoprecipitates (32P incorporation into substrate) (enolase)
B1	both kinases phosphoylated the C-terminal scr peptide, enolase and poly Glu/Try to similar degrees	both kinases phosphoylated the C-terminal scr peptide, enolase and poly Glu/Try to similar degrees
B2	both kinases phosphoylated the C-terminal scr peptide, enolase and poly Glu/Try to similar degrees	both kinases phosphoylated the C-terminal scr peptide, enolase and poly Glu/Try to similar degrees
